16 molecules from patent publication US20220056125A1 (CEPHALON, published 2022) can be followed below.

Where a chain is given by its changes, count along the chain named.

First the molecules themselves.
T1: human PAR-1 (human, UniProt P25116 22-425)
T1 construct: also called huPAR-1
T1 sequence: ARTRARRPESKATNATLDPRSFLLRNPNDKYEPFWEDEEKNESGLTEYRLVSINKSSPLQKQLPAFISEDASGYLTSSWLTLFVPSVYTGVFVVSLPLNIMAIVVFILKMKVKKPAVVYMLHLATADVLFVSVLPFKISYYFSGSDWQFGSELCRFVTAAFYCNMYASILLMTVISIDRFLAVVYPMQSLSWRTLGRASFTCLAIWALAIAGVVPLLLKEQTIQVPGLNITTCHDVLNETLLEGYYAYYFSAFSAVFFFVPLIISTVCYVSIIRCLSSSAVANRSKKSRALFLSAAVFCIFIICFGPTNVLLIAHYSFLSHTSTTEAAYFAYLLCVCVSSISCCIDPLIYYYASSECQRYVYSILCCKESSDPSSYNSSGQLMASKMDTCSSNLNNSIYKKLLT

T2: human PAR-2 (human, UniProt P55085 26-397)
T2 sequence: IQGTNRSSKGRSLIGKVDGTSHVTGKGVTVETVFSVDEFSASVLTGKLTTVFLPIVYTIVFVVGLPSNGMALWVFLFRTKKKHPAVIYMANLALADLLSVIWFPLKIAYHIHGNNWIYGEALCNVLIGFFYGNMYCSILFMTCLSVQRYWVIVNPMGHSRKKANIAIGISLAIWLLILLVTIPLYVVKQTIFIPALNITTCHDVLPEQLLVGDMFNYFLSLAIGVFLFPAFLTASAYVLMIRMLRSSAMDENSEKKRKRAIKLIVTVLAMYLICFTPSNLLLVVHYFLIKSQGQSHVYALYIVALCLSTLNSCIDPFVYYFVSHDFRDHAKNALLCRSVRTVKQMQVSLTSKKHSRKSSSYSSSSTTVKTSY

B1: Ab343 (antibody, human IgG4, V domains shown)
VH: EVQLVESGGGLVQPGRSLKLSCVASGFTFNNYWMSWIRQAPGKGLEWVASITNTGGRIFYPDSVKGRFTISRDNAQNTLYLQMNSLRSEDAATYYCTRDRLYYGSNWFTYWGQGTLVTVSS
VL: DIQMTQSPHSLSASLGETVSIECLASEAISNYLAWYQQKPGKSPQLLIYYASSLKDGVPSRISGSGSGTQYSLKISNMQPEDEGVYYCQQGYKYPRTFGGGTKLELK
notes: also called Anti-PAR-2 antibody # 343
B2: Ab392 (antibody, human IgG4, V domains shown)
VH: EVQLVESGGGLVQPGRSLKLSCVASGFTFNNKWMTWIRQAPGKGLEWIASITNTGGRTFYPDSVKGRFTISRDDAKSTLYLQMNSLRSEDTATYYCTRATIRRGASYFDYWGQGVMVTVSS
VL: B1 VL with T18G, A28G, Y36F, K55Q, I62F, R96W
notes: also called Anti-PAR-2 antibody # 392
B3: Ab114 (antibody, human IgG4, V domains shown)
VH: QVQLQQSGPELVKPGASVKISCKTSGFTFTSYYIHWVKQRPGQGLEWIGWIYPGSGNTYYNERFKGKATLTADTSSSTASMQLSSLTSEDSAVYYCANGPLFYGSSYWYFDVWGTGTTVTVSS
VL: DVQITQSPSYLAASPGETITINCRASKSISRYLAWYQEKPGKTNKLLIYSGSTLQSGVPSRFSGSGFGTDFTLTISSLEPEDFAMYYCQQHNKYPLTFGAGTKLELK
notes: also called Anti-PAR-2 antibody # 114
B4: Ab360 (antibody, human IgG4, V domains shown)
VH: EVQLVESGGGLVQPGRSLKLSCVASGFTFNNYWMTWIRQAPGKGLEWVASITNTGGSTYYPDSVKGRFTISRDNAKSTLYLQMNSLRSEDTATYYCTREGIRGTGWFAYWGQGTLVTVSS
VL: DTVLTQSPALAVSPGERVTISCRASESVRTRMHWYQQRPGQQPKLLIYGASNPESGVPARFSGSGSGTDFTLTIDPVEADDSATYFCHQSWNEYTFGAGTKLELK
notes: also called Anti-PAR-2 antibody # 360
B5: Ab248 (antibody, human IgG4, V domains shown)
VH: QVQLKESGPGLVQPSQTLSLTCTVSGFSLTNYHVSWVRQPPGKGLEWMGIIWTGGSTAYNSLLKSRLSISRDTSKSQVFLKMNSLQTEDTATYYCARRGLYPYYFDYWGQGVMVTVSS
VL: EIVLTQSPTTLAASPGEKVTITCRASSRVSNMYWYQQKSGASPKAWIYETSKLASGVPDRFSGSGSGTSYSFTISSMETEDAATYYCHQWTSTPYTFGAGTKLELK
notes: also called Anti-PAR-2 antibody # 248
B6: Ab313 (antibody, human IgG4, V domains shown)
VH: EVQLKESGPGLVQPSQTLSLTCTVSGFSLTDYSVHWVRQPPGKGLEWMGVMWSGGSTSYNSPLKSRLSISRDTSKSQVFLKTNSLQTEDTAIYYCTRARPTVATLDYWGQGVMVTVSS
VL: DIQMTQSPSVLSASVGDRVILNCKASQKINKYLNWYQQKLGEAPKLLIYTTNNLQTGIPSRFSGSGSGTDFTLTISSLQPEDFATYFCFQHSSWPTFGAGTKLELK
notes: also called Anti-PAR-2 antibody # 313
B7: Ab86 (antibody, human IgG4, V domains shown)
VH: EVQLVESGGGLVQPKGSLKLSCAASGFTFNTYAMHWVRQAPGKGLEWVARIRSKNVHYATYYADSVKDRFTISRDDSQNMLYLQMNNLKTEDTAMYYCVREDYYGSSYDYWGQGTTLTVSS
VL: DIVMTQSHKFMSTSLGDRVSITCKASQDVGSAVAWHQQKPGQSPKVLIYWASNRHTGVPDRFTGSGSGTDFTLTISNVQSEDLADYFCQQYSSYPFTFGSGTKLEIK
notes: also called Anti-PAR-2 antibody # 86
B8: Ab84 (antibody, human IgG4, V domains shown)
VH: B7 VH with V5I, T31S, N79S, Y97F
VL: B7 VL with L15V, V46L, A51T, S65R, G66R, S93T
notes: also called Anti-PAR-2 antibody # 84
B9: Ab87 (antibody, human IgG4, V domains shown)
VH: B7 VH with N30Y, T31S, K43R
VL: B7 VL with L15V, G30R, V46L
notes: also called Anti-PAR-2 antibody # 87
B10: Ab5 (antibody, human IgG4, V domains shown)
VH: QVQLQQPGSELVKPGASVKLSCKASGYTFTNYWMHWVKQRPGQGLEWIGMIHPNSDFSNYNEKFKKKATLTVDKSSSTAYMQLSSLTSEDSAVYFCAKGPNYYGSRYWYFDVWGTGTTVTVSS
VL: DIVLTQSPTSLAVSLGQRATISCRASESVDSYGNSFLHWYQQKAGQPPKLLIYRTSNLESGIPARFSGSGSRTDFTLTINPVEADDVATYFCQQSNEDPYTFGGGTKLELK
notes: also called Anti-PAR-2 antibody # 5
B11: Ab303 (antibody, human IgG4, V domains shown)
VH: QVTLKESGPGILQPSHTLSLTCSFSGFSLSTYGMGVSWIRQPSGKGLEWLASIWWNGNTYNNPSLKSRLTVSKDTSNNQAFLKVTSVDTADTATYYCAHTPNLGNWFAYWGQGTLVTVSS
VL: DIQMTQSPSFLSASVGERVTLSCKTSQKINRYLDWYQQKLGEAPKLLIYNTNNLHTGIPSRFSGSGSGTDYTLTISSLQPEDVATYFCLQHSSWPTFGAGTKLELK
notes: also called Anti-PAR-2 antibody # 303
B12: Ab335 (antibody, human IgG4, V domains shown)
VH: QVQLKESGPGLVQPSQTLSLSCTVSGFSLSTYGVIWVRQPPGKGLEWMGVIWGNGNTNYNSALKSRLSISRDTSKSQVFLKMNNLQSEDTAMYFCGRWRGYKDYPFDYWGQGVKVTVSS
VL: DIQMTQSPSFLSASVGDRVTINCKASRNIYKYLDWYQQKLGEAPKLLIYNTNNLHTGIPSRFSGSGSGTDFTLTISSLQPEDVATYFCLQHNSGWTFGGGTKLELK
notes: also called Anti-PAR-2 antibody # 335
B13: Ab348 (antibody, human IgG4, V domains shown)
VH: QVQLKESGPGLVQPSQTLSLTCSVSGFSLSSYGVIWVRQPPGKGLEWMGVVWGNGNTAYNFTLKSRLTISRDTSKSQVFLKMNNLQTEDTAMYFCGRWRGFKDYPFDYWGQGVMVTVSS
VL: B12 VL with R27Q, N53S
notes: also called Anti-PAR-2 antibody # 348
B14: Ab323 (antibody, human IgG4, V domains shown)
VH: B12 VH with S21T, T23S, V34I, N58H, S70T, S87T, K114M
VL: B12 VL with R27Q, I48M, N53T
notes: also called Anti-PAR-2 antibody # 323
B15: Ab342 (antibody, human IgG4, V domains shown)
VH: B12 VH with S30N, E46D, N58Y, N60D, V78I, Y101F
VL: B12 VL with S7T, K24R, R27Q, Q38L, N53T, T96A
notes: also called Anti-PAR-2 antibody # 342
B16: Ab311 (antibody, human IgG4, V domains shown)
VH: B12 VH with S30T, E46M, N58Y, A62P
VL: B12 VL with R27Q, T51S, N53I, I58V, T74S, T101S, K106R
notes: also called Anti-PAR-2 antibody # 311

For the first experiment, the target named is T1, human PAR-1. Description: flow cytometry, transfected Expi293F cells. Here is the method:
Paired heavy and light chains encoded by these sequence pairs were expressed as a full length human IgG4 isotype antibodies and assessed for PAR-2 binding and selectivity by flow cytometry. […] Cells were used for flow cytometric analysis 36-48 hours post-transfection. Use of Nt-PAR-2 as a target allowed antibodies which bound the N-terminal residues of PAR-2 (which comprise the protease-cleavage sites on PAR-2) to be distinguished from antibodies which bound other extracellular sites on PAR-2, such as the PAR-2-activating ligand-binding site(s). Expi293F cells, transiently expressing one of each of the different target proteins were labelled with different intensities of a single fluorphor Encoder dye (Intellicyt) for 10 mins at either 1 in 250 dilution for high intensity and/or 1 in 1500 dilution for moderate intensity, enabling simultaneous analysis of multiple cell populations. After washing the cells were then mixed in an equal ratio with the unlabeled cell type and analyzed for antibody binding.
The cells were plated in 96 well plates at 2×10⁵ cells/well. Following a wash step using Phosphate buffered saline (PBS), the primary antibody (anti-PAR-2 antibody) was added at a concentration of 10 μg/mL in 50 μL of FACS buffer (0.5% w/v BSA in PBS) to each well and incubated for 10-15 mins. Following a wash step, secondary antibody (anti-human Fc-FITC) was added to the wells at 1:200 dilution in 50 μL for 10-15 mins. Following a washing step, the cells were re-suspended in fluorescence-activated cell sorting (FACS) buffer. The flow cytometry analysis was performed on an Intellicyt iQue screener. Gates were drawn around the different intensities of encoder dye-positive cells and these populations were analyzed separately from each other and the unlabeled cells for binding by the primary antibody.
Background: A flow cytometer gives signals particle by particle.
On to B1, for which the binding result was “no binding (tested: 10 µg/mL)”.

B2: the binding result is reported as “no binding (tested: 10 µg/mL)”.

Take B3: the binding result is recorded as “no binding (tested: 10 µg/mL)”.

Turning to B4, the binding result was “no binding (tested: 10 µg/mL)”.

With B5, the binding result is listed as “no binding (tested: 10 µg/mL)”.

As for B6, the binding result is listed as “no binding (tested: 10 µg/mL)”.

As for B7, the binding result was “no binding (tested: 10 µg/mL)”.

As to B8, the binding result was “no binding (tested: 10 µg/mL)”.

As for B9, the binding result was “no binding (tested: 10 µg/mL)”.

As for B10, the binding result is reported as “no binding (tested: 10 µg/mL)”.

With B11, the binding result is given as “no binding (tested: 10 µg/mL)”.

Consider B12, for which the binding result is “no binding (tested: 10 µg/mL)”.

Turning to B13, the binding result is reported as “no binding (tested: 10 µg/mL)”.

Consider B14, for which the binding result is reported as “no binding (tested: 10 µg/mL)”.

Regarding B15, the binding result is reported as “no binding (tested: 10 µg/mL)”.

Consider B16, for which the binding result is on record as “no binding (tested: 10 µg/mL)”.

The next experiment concerns the target T2, human PAR-2. Nature of the experiment: cell-based or functional assay.
For B1, the “IC50, PAR-2 β-arrestin cell assay” value was 18.2 nM.

As for B2, the “IC50, PAR-2 β-arrestin cell assay” value came out at 13.7 nM.

In the case of B3, the “IC50, PAR-2 β-arrestin cell assay” value was found to be 36.7 nM.

As for B4, the “IC50, PAR-2 β-arrestin cell assay” value turned out to be 16 nM.

In the case of B5, the “IC50, PAR-2 β-arrestin cell assay” value was determined as 4.6 nM.

B6: the “IC50, PAR-2 β-arrestin cell assay” value is 8.2 nM.

Consider B7, for which the “IC50, PAR-2 β-arrestin cell assay” value was 9.9 nM.

In the case of B8, the “IC50, PAR-2 β-arrestin cell assay” value worked out at 6 nM.

As for B9, the “IC50, PAR-2 β-arrestin cell assay” value amounted to 5.6 nM.

B10: the “IC50, PAR-2 β-arrestin cell assay” value worked out at 23.1 nM.

In the case of B11, the “IC50, PAR-2 β-arrestin cell assay” value is 9 nM.

As for B12, the “IC50, PAR-2 β-arrestin cell assay” value is 2.5 nM.

For B13, the “IC50, PAR-2 β-arrestin cell assay” value came out at 2.7 nM.

For the molecule B14, the “IC50, PAR-2 β-arrestin cell assay” value is 2.1 nM.

On to B15, for which the “IC50, PAR-2 β-arrestin cell assay” value was determined as 1.9 nM.

Regarding B16, the “IC50, PAR-2 β-arrestin cell assay” value was 1.8 nM.
